Data from patent publication US20230357364A1 (INTERNATIONAL AIDS VACCINE INITIATIVE, published 2023).
Substitutions are numbered along the chain they refer to.

B1: L12.cP08A09 (antibody, V domains shown)
VH: QVQLVQSGAEVKKPGASVKVSCKASGYIYSGYYMHWVRQAPGQGLEWMGWISPDSGGTNYAQRFQGRVTMTRDTSTTTAYMELSRLRSDDTAVYYCARGPRYSGTYFDYWGQGTLVTVSS
VL: QSALTQPASVSGSPGQSITISCTGTSSDVGGYNYVSWYQQHPDKAPKLMIYDVSNRPSGVSNRFSGSKSGNTASLTISGLQAEDEADYYCSSYTSGSTQVFGGGTKLTVL
notes: human IgG1
B2: L12.bP10G07 (antibody, V domains shown)
VH: B1 VH with Q1E, V93M
VL: B1 VL with S2T, A3V, L4V, M49I, D87A, G96S
notes: human IgG1
B3: L12.bP11C10 (antibody, V domains shown)
VH: B1 VH with Y29F, R63K, T76I, A79G, R85G, V118I
VL: B1 VL with A8T, D43G, M49I, S95V, G96S
notes: human IgG1
B4: L12.bP12H09 (antibody, V domains shown)
VH: B1 VH with Y29F, M34T, R63K, T76I, M81V, R85G
VL: B1 VL with Y34H, D43G, G96S, T98A, V100L
notes: human IgG1
B5: L12.cP09C07 (antibody, V domains shown)
VH: B1 VH with Y33F, T58A, R63T, Y80H, Y106H
VL: B1 VL with I18L, S54N, N71S, T94A, S95G, G96S, T108I
notes: human IgG1
B6: L6.dP02A05 (antibody, V domains shown)
VH: EVQLVQSGAEVKKPGASVKVSCMASGYTFTSYYMHWVRQAPGQGLEWMGIISPSGGGTSYAQKFQGRVTLTRDTSTSTVYMELSSLRSEDTAVYYCARWYDSTGSIDYWGQGTLVTVSS
VL: DIVMTQSPSSLSASVGDRVTITCRASQGIRNDLGWYQQKPGKAPKRLIYAASSLQSGVPSRFSGSGSGTEFTLTISSLQPEDFATYYCLQHNSYPILTFGGGTKVEIK
notes: human IgG1
B7: L6.dP02F01 (antibody, V domains shown)
VH: EVQLVESGGGLVQPGRSLRLSCAASGFTFDDYAMHWVRQAPGKGLEWVSGISWNSGSIAFAGSVKGRFTISRDNAKNSLYLQMNSLRAEDTALYYCAKDQGYSYGNYFDYWGQGTLVTVSS
VL: QLVLTQPPSVSVAPGKTARITCGGNNIGSKSVYWYQQKPGQAPVLVVYDDSDRPSGIPERFSGSNSGNTATLTISRVEAGDEADYYCQVWDSSSDHPYVFGSGTKVTVL
notes: human IgG1

Biological target: SARS-CoV-2 RBD (RBD-2) (SARS-CoV-2)
Assay: ELISA

Binder	EC50
B1	0.666 µg/mL
B2	1.41 µg/mL
B3	3.12 µg/mL
B4	0.483 µg/mL
B5	0.16 µg/mL
B6	0.025 µg/mL
B7	0.013 µg/mL

Biological target: SARS-CoV-1 RBD (RBD-1) (SARS-CoV-1)
Assay: ELISA

Binder	EC50
B1	> 50 µg/mL
B2	> 50 µg/mL
B3	> 50 µg/mL
B4	> 50 µg/mL
B5	> 50 µg/mL
B6	> 50 µg/mL
B7	0.021 µg/mL

Biological target: SARS-CoV-2 RBD (RBD-2) (SARS-CoV-2)
Assay: SPR, Fc-captured IgG

Binder	Kd	koff	kon
B1	175 nM	0.0707 s⁻¹	404000 M⁻¹ s⁻¹
B2	220 nM	0.0961 s⁻¹	436000 M⁻¹ s⁻¹
B3	255 nM	0.126 s⁻¹	493000 M⁻¹ s⁻¹
B4	155 nM	0.12 s⁻¹	773000 M⁻¹ s⁻¹
B5	87.9 nM	0.0691 s⁻¹	786000 M⁻¹ s⁻¹

Biological target: T1, SARS-CoV-1 spike on pseudovirus (SARS-CoV-1, UniProt P59594 14-1255)
Assay: cell-based or functional assay

Binder	PSV neutralization IC50
B1	> 50 µg/mL
B3	> 50 µg/mL
B4	> 50 µg/mL
B5	> 50 µg/mL

Biological target: T2, SARS-CoV-2 spike on pseudovirus or live virus (USA-WA1/2020, WT) (SARS-CoV-2, UniProt P0DTC2 14-1273)
Assay: cell-based or functional assay

Binder	PSV neutralization IC50
B1	0.382 µg/mL
B2	0.865 µg/mL
B3	0.092 µg/mL
B4	0.062 µg/mL
B5	0.085 µg/mL

Biological target: SARS-CoV-2 RBD (RBD-2) (SARS-CoV-2)
Assay: flow, HeLa-ACE2, mAb:RBD=4:1

Binder	% inhibition of RBD binding to hACE2	MFI (RBD binding to cell surface)
B1	49%	5740
B2	49.2%	5710
B3	54.1%	5170
B4	54.7%	5100
B5	64.3%	4040

Biological target: T1, SARS-CoV-1 spike on pseudovirus
Assay: cell-based or functional assay
Remark: another data set of the same source

Binder	PSV neutralization IC50
B1	> 50 µg/mL
B2	> 50 µg/mL
B3	> 50 µg/mL
B4	> 50 µg/mL
B5	> 50 µg/mL
B6	> 50 µg/mL
B7	5.56 µg/mL

Biological target: T2, SARS-CoV-2 spike on pseudovirus or live …
Assay: cell-based or functional assay
Remark: another data set of the same source

Binder	Maximum Plateau of Neutralization	PSV neutralization IC50
B1	99%	1.5 µg/mL
B2	100%	0.328 µg/mL
B3	100%	0.494 µg/mL
B4	100%	0.106 µg/mL
B5	95%	–
B6	100%	0.059 µg/mL
B7	99%	1.09 µg/mL

Biological target: SARS-CoV-2 RBD (RBD-2) (SARS-CoV-2)
Assay: flow, HeLa-ACE2, mAb:RBD=2:1

Binder	% inhibition of RBD binding to hACE2	MFI (RBD binding to cell surface)
B1	39.4%	6800
B2	36.6%	7120
B3	38.5%	6900
B4	41.6%	6560
B5	54.5%	5130
